From US20220220218A1 (JIANGSU HENGRUI MEDICINE, published 2022) come the findings set out here.

T1: human CD73 (huCD73) protein, antigen of the Biacore assay (human, UniProt P21589 27-547, limits assumed)
T1 construct: also called human CD73 antigen
T1 sequence (looked up): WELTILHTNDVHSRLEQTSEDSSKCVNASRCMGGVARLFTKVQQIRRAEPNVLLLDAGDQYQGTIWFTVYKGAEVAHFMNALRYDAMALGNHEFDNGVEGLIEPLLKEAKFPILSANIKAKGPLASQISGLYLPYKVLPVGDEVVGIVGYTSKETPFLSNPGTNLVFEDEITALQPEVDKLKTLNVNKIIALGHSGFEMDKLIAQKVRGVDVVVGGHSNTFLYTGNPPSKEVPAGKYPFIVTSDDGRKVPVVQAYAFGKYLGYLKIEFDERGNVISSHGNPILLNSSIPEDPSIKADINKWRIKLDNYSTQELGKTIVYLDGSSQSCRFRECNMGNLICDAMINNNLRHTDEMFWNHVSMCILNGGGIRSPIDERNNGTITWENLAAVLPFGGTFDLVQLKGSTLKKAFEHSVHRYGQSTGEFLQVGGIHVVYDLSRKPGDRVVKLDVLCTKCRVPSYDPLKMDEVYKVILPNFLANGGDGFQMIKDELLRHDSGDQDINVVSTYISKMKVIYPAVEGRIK

B1: Hab110.23 (antibody, V domains shown)
VH: EVQLVQSGAEVKKPGASVKVSCKASGYTFTSYTMHWVRQAPGQRLEWIGYINPNSFYIEYNQKFKDRATLTADTSASTAYMELSSLRSEDTAVYYCARGDYDLFYDMDNWGQGTTVTVSS
VL: DIQMTQSPSSLSASVGDRVTITCRASQDIGNSLNWLQQKPGKAIKRLIYATFRLDSGVPSRFSGSRSGTEYTLTISSLQPEDFATYYCQQYASFPWTFGGGTKVEIK
notes: VL2 + VH3; recombined with human heavy and light constant regions
B2: Hab127.32 (antibody, V domains shown)
VH: EVQLVQSGAEVKKPGASVKVSCKASGYTFTAYFMNWVMQAPGQGLEWMGRIYHNNGDTFYSQKFKGRVTMTVDKSTSTVYMELSSLRSEDTAVYYCATSYVGDWGQGTTVTVSS
VL: B1 VL with N31D, K42G, I44L, F52S, R53S, R66G, Q89L
notes: VL3 + VH2; recombined with human heavy and light constant regions
B3: Hab110.24 (antibody, V domains shown)
VH: B1 VH with R67K
VL: B1 VL
notes: VL2 + VH4; recombined with human heavy and light constant regions
B4: Hab127.14 (antibody, V domains shown)
VH: B2 VH with G44S, M48I, V68A, M70L, S84R
VL: B1 VL with N31D, L36Y, I44P, F52S, R53S, R66G, Y71F, Q89L
notes: VL1 + VH4; recombined with human heavy and light constant regions
B5: Hab110.25 (antibody, V domains shown)
VH: B1 VH with R38K, R44G, R67K
VL: B1 VL
notes: VL2 + VH5; recombined with human heavy and light constant regions
B6: Hab110.35 (antibody, V domains shown)
VH: B1 VH with R38K, R44G, R67K
VL: B1 VL with K42G, T85D
notes: VL3 + VH5; recombined with human heavy and light constant regions
B7: Hab110.32 (antibody, V domains shown)
VH: B1 VH with I48M, A68V, L70I
VL: B1 VL with K42G, T85D
notes: as for B2
B8: Hab110.34 (antibody, V domains shown)
VH: B1 VH with R67K
VL: B1 VL with K42G, T85D
notes: VL3 + VH4; recombined with human heavy and light constant regions
B9: Hab127.21 (antibody, V domains shown)
VH: B2 VH with M38R
VL: B1 VL with N31D, I44P, F52S, R53S, R66G, Q89L
notes: VL2 + VH1; recombined with human heavy and light constant regions
B10: Hab110.22 (antibody, V domains shown)
VH: B1 VH with I48M, A68V, L70I
VL: B1 VL
notes: VL2 + VH2; recombined with human heavy and light constant regions
B11: Hab110.31 (antibody, V domains shown)
VH: B1 VH with I48M, A68V, L70I, A72R
VL: B1 VL with K42G, T85D
notes: VL3 + VH1; recombined with human heavy and light constant regions
B12: Hab127.13 (antibody, V domains shown)
VH: B2 VH with M48I, V68A, M70L
VL: B1 VL with N31D, L36Y, I44P, F52S, R53S, R66G, Y71F, Q89L
notes: VL1 + VH3; recombined with human heavy and light constant regions

Usually Kd stands for the equilibrium constant for the complex coming apart. Read a high Kd as weaker binding. Broadly, the koff is a measure of how fast the partners let go of each other. As a reminder, the kon is the second-order rate constant of association. A lower kon goes with slower complex formation.

Substitutions are numbered along the chain they refer to.

The experiment has as its target T1, human CD73 (huCD73) protein, antigen of …. The experiment in a line: SPR Biacore T200; antibody captured on Protein A chip, CD73 in flow; 1:1 Langmuir. The source says:
In this experiment, Biacore instrument was used to determine the affinity of the humanized anti-CD73 antibodies to be tested with human CD73 (huCD73) and monkey CD73 (cynoCD73).
A certain amount of test antibody was affinity-captured with Protein A biosensing chip (Cat. #29127556, GE), and then a certain concentration of human or monkey CD73 antigen was allowed to flow through the surface of the chip. The reaction signals were detected in real time with Biacore instrument (Biacore T200, GE) to generate a binding and dissociation curve. At the end of each cycle, after the dissociation was completed, the biosensor chip was washed and regenerated with Glycine-HCl, pH1.5 (Cat. #BR-1003-54, GE). The running buffer for the assay was 1×HBS-EP buffer solution (Cat. #BR-1001-88, GE).
The data obtained from the experiment was fitted against (1:1) Langmuir model using GE Biacore T200 Evaluation version 3.0 software, and the affinity values were obtained, as shown in Table 12 and Table 13 for details.
(Surface plasmon resonance follows binding to a sensor surface in real time, without labels.)
Consider B1, for which the dissociation constant (Kd) came out at 0.166 nM, the koff stood at 5.43e-05 s⁻¹ and the kon turned out to be 327000 M⁻¹ s⁻¹.

For the molecule B2, the Kd worked out at 0.277 nM, the koff stood at 4.6e-05 s⁻¹ and the kon was 166000 M⁻¹ s⁻¹.

With B3, binding was put at a Kd of 0.188 nM, the koff came to 6.2e-05 s⁻¹ and the kon worked out at 330000 M⁻¹ s⁻¹.

For B4, the dissociation constant (Kd) turned out to be 0.847 nM, the koff is 0.000118 s⁻¹ and the kon is 140000 M⁻¹ s⁻¹.

Take B5: binding was characterised by a dissociation constant (Kd) of 0.223 nM, the koff amounted to 7.79e-05 s⁻¹ and the kon worked out at 349000 M⁻¹ s⁻¹.

The molecule B6 registered a Kd of 0.244 nM, a koff of 9.4e-05 s⁻¹ and a kon of 385000 M⁻¹ s⁻¹.

Regarding B7, binding was put at a Kd of 0.188 nM, the koff stood at 6.94e-05 s⁻¹ and the kon came out at 370000 M⁻¹ s⁻¹.

Turning to B8, the Kd was found to be 0.228 nM, the koff was 8.16e-05 s⁻¹ and the kon came out at 358000 M⁻¹ s⁻¹.

With B9, binding was characterised by a dissociation constant (Kd) of 0.333 nM, the koff turned out to be 5.4e-05 s⁻¹ and the kon came out at 162000 M⁻¹ s⁻¹.

B10 returned a Kd of 0.147 nM, a koff of 4.95e-05 s⁻¹ and a kon of 338000 M⁻¹ s⁻¹.

With B11, the affinity, expressed as Kd, was 0.161 nM; the koff was 5.86e-05 s⁻¹; the kon was 364000 M⁻¹ s⁻¹.

In the case of B12, the affinity, expressed as Kd, was 0.79 nM; the koff came out at 0.000119 s⁻¹; the kon was 150000 M⁻¹ s⁻¹.
